These results are taken from article PMC9529537 (The Innovation, 2022).

The target in the assay is E protein on YFV virions (Yellow fever virus, strain of the …). As to the kind of experiment: flow cytometry on cells. (In general: A flow cytometer gives signals particle by particle.)

B1: YD73 human monoclonal antibody, full-length IgG1 (antibody, V domains shown)
VH: QVQLVQSGAEVKKPGASVKVSCKASGYTFIAYGISWVRQAPGQGLEWMGWISAHNGNTNYAQKFQGRVTVTTDTTTRTAFMELRNLRSDDTAVYYCARAPWEYNYRSSGYYDSPYWGQGTLVTVSS
VL: EIVLTQSPGTLSLSPGERATLSCRASQSVVSTYLAWYQQKPGQAPRLLIYDTSTRATGIPDRFSGSGSGTDFTLTISRLEPEDFAVYYCQHYDSSPPWTFGQGTKVEIK
In the case of B1, the binding result is “binds”.

B2: YD6 human monoclonal antibody, full-length IgG1 (antibody, V domains shown)
VH: EVQLVESGGGLVKPGGSLRLSCAASGFIFSDYYMMWIRQAPGKGLEWISYISSSGSQIYYTESVKGRFTISRDNGKNLLYLQMNSLRGEDTALYYCATETGWRIDTWGQGTLVTVSS
VL: QAVLTQPASVSGSPGQSITISCTGTGSNIETYNLVSWYQRHPGKAPKLILYEVSERPSGVSNRFSGSKSGNTASLTISGLQAEDEADYFCCSYADTNIFWVFGGGTHLTVL
As to B2, the binding result was “binds”.
